# In patent US9758785B2, “miR-520 microRNAs sensitize cancers to platinum-based therapy” (BAYLOR COLLEGE OF MEDICINE, priority 2012, dated 2017):
# “Also recorded” adds a separate entry of the source.
# B1: hsa-mir-520a MI0003149 (nucleic acid, listed as Homo sapiens)
# chain: CUCAGGCUGUGACCCUCCAGAGGGAAGUACUUUCUGUUGUCUGAGAGAAAAGAAAGUGCUUCCCUUUGGACUGUUUCGGUUUGAG
# modifications: expressed or natural sequence
# notes: seed 5'aagugcu; mimic or stably expressed
# Columns and labels:
# Assay type in all cases: cell-based, human
# OVCAR8 cells [1] = assay: Viability (MTS) across cisplatin concentrations, stable microRNA clones
# Method: (§1) Established ovarian cancer cell lines were obtained from the ATCC (OVCAR8, OVCAR5) and the University of Texas M.D. Anderson Cancer Center (HEYA8, SKOV3ip1). All cell lines were maintained at 37° C. in RPMI 1640 media (Invitrogen, Carlsbad, Calif.) supplemented with 10% fetal bovine serums (Hyclone, Logan, Utah) and 1% penicillin/streptomycin (Gibco, Carlsbad, Calif.). MicroRNA mimics and mimic controls (Dharmacon, Lafayette, Colo.) were transiently transfected into actively growing cultures using Lipofectamine 2000 (Invitrogen, Carlsbad, Calif.). After a 24-hour incubation, transfected cultures were washed, passaged and seeded into 96 well plates. Proliferation and apoptosis were measured at 72, 96 and 120 hours after transfection using standard assays (Cell Titer 96 Aqueous One; Caspase Glo 3/7; Promega, Madison, Wis.). pLemiR expression vectors (Open Biosystems/Thermo, Huntsville, Ala.) were prepared according to manufacturer's instructions and transfected into cells using Fugene 6 (Roche, Indianapolis, Ind.). Following transfection, stable clones were selected using puromycin (Invitrogen) at doses optimized for each line. Rates of proliferation and apoptosis were examined in stable transfectants 24, 48, 72 and 96 hours after selected cells had been passaged and dispensed into 96 well plates. Viability was assessed across a clinically relevant range of cisplatin concentrations using an MTS assay (Promega). Cisplatin was obtained from Teva Pharmaceuticals (Irvine, Calif.).
# (§2) For this reason, the inventors created clones of OVCAR8 and SKOV3ip1 ovarian cancer cell lines stably expressing either miR-520h (n=3) and miR-520a (n=3). […] To assess the impact of these microRNAs on cisplatin-induced cell killing, the inventors examined the viability of OVCAR8 and SKOV3ip1 cells stably expressing either microRNA incubated with clinically relevant concentrations of cisplatin. […] It should be noted that SKOV3ip1 cells tolerated only very low levels of miR-520a expression. The impact of cisplatin treatment on rates of apoptosis differed dramatically between the two cell lines.
# SKOV3ip1 cells [2] = assay: as above
# Method: as §1, §2
# OVCAR8 cells [3] = assay: Proliferation assay (MTS, Cell Titer 96 Aqueous One); details: OVCAR8, transient/acute mimic transfection vs non-silencing control, no cisplatin
# Method: as §1
# OVCAR8 cells [4] = assay: Apoptosis assay (Caspase Glo 3/7)
# Method: as §1
# SKOV3ip1 cells [5] = assay: Apoptosis assay (Caspase Glo 3/7)
# Method: as §1
# [6] = test system: established ovarian cancer cell lines; assay: Proliferation or apoptosis in established ovarian cancer cell lines after mimic transfection; details: mimics vs control cultures; cell lines SKOV4, HEY, OVCAR8, OVCAR5
# Method: as §1, with “Rates of proliferation and apoptosis were examined in stable transfectants 24, 48, 72 and 96 hours after selected cells had been passaged and dispensed into 96 well plates.” left out, “Cisplatin was obtained from Teva Pharmaceuticals (Irvine, Calif.).” left out
Molecule,IC50 for cisplatinum in control cells (OVCAR8 cells [1]; OVCAR8 cells expressing a non-targeting mimic control) [µg/mL],IC50 for cisplatin in control cells (SKOV3ip1 cells [2]; SKOV3ip1 cells expressing the non-silencing control) [µg/mL],"Sensitization to cisplatin (viability) (OVCAR8 cells [1]; OVCAR8 stable clones vs non-silencing mimic, cisplatin <5 μg/mL)",Sensitization to cisplatin (viability) (SKOV3ip1 cells [2]; SKOV3ip1 stable clones vs non-silencing mimic),Proliferation (OVCAR8 cells [3]),"Apoptosis (caspase 3/7) (OVCAR8 cells [4]; OVCAR8, transient/acute mimic transfection vs non-silencing control, no cisplatin)","Apoptosis in presence of cisplatin (OVCAR8 cells [4]; OVCAR8 stable clones, cisplatin up to 10 μg/mL)","Apoptosis (caspase 3/7) (SKOV3ip1 cells [5]; SKOV3ip1, acute mimic transfection, no cisplatin)","Apoptosis in presence of cisplatin (SKOV3ip1 cells [5]; SKOV3ip1 stable clones, cisplatin treatment)",Impact on proliferation or apoptosis [6]
"N.N.[Cl][Pt][Cl] [cisplatin, reference compound]",1.31,0.43,–,–,–,–,–,–,–,–
B1,–,–,sensitized,appeared to sensitize,decreased proliferation only in OVCAR8 cells,decreased rates of apoptosis,significantly decreased; also recorded: significantly lower rates of apoptosis,decreased rates of apoptosis,significantly increased,impacted proliferation and/or apoptosis in some but not all
